Reference: paper PMC5499577 (Nucleic Acids Research, 2017)
Changes are numbered by the printed parent chain. Names may count otherwise. Read-outs that look alike come from different tables or passages of the source.

Columns and labels:
AUC [1] = biological target: the molecule itself; experiment: AUC
crystal structure = biological target: the molecule itself; experiment: crystal structure
AUC [2] = biological target: the molecule itself; experiment: AUC; remark: listed apart in the source

B1: Listeria innocua integrase (LI Int), wild type, full length (enzyme, Listeria innocua (prophage), UniProt Q928V6 1-452, looked up)
chain: MKAAIYIRVSTQEQVENYSIQAQTEKLTALCRSKDWDVYDTFIDGGYSGSNMNRPALNEMLSKLHEIDAVVVYRLDRLSRSQKDTITLIEEYFLKNNVEFVSLSETLDTSSPFGRAMIGILSVFAQLERETIRDRMVMGKIKRIEAGLPLTTAKGRTFGYDVIDTKLYINEEEAKQLRLIYDIFEEEQSITFLQKRLKKLGFKVRTYNRYNNWLTNDLYCGYVSYKDKVHVKGIHEPIISEEQFYRVQEIFSRMGKNPNMNKESASLLNNLVVCSKCGLGFVHRRKDTVSRGKKYHYRYYSCKTYKHTHELEKCGNKIWRADKLEELIIDRVNNYSFASRNIDKEDELDSLNEKLKIEHAKKKRLFDLYINGSYEVSELDSMMNDIDAQINYYEAQIEANEELKKNKKIQENLADLATVDFNSLEFREKQLYLKSLINKIYIDGEQVTIEWL
AUC [1]
  Kd: ≤ 0.032 µM
  stoichiometry N: 2

## SLNEKLKIEHAKKKRLFDLYINGSYEVSELDSMMNDIDAQINYYEAQIEA (domain or fragment, Listeria innocua (prophage), UniProt Q928V6 350-399, looked up) [LI Int isolated coiled-coil domain CC-II (350-399)]
Crystal structure
  binding result: binds

B2: His6Flag-Smt3-CC-I fusion of the LI Int coiled-coil domain (345-405) (domain or fragment, Listeria innocua (prophage), UniProt Q928V6 345-405, looked up)
chain: EDELDSLNEKLKIEHAKKKRLFDLYINGSYEVSELDSMMNDIDAQINYYEAQIEANEELKK
AUC [2]
  Kd: 20.1 µM
  stoichiometry N: 2

B3: LI Int isolated coiled-coil domain CC-III (349-400) (domain or fragment, Listeria innocua (prophage), UniProt Q928V6 349-400, looked up)
chain: DSLNEKLKIEHAKKKRLFDLYINGSYEVSELDSMMNDIDAQINYYEAQIEAN
Crystal structure
  binding result: binds

B4: LI Int CTD Y369A (133-452) (domain or fragment, Listeria innocua (prophage), UniProt Q928V6 133-452, looked up)
chain: RDRMVMGKIKRIEAGLPLTTAKGRTFGYDVIDTKLYINEEEAKQLRLIYDIFEEEQSITFLQKRLKKLGFKVRTYNRYNNWLTNDLYCGYVSYKDKVHVKGIHEPIISEEQFYRVQEIFSRMGKNPNMNKESASLLNNLVVCSKCGLGFVHRRKDTVSRGKKYHYRYYSCKTYKHTHELEKCGNKIWRADKLEELIIDRVNNYSFASRNIDKEDELDSLNEKLKIEHAKKKRLFDLAINGSYEVSELDSMMNDIDAQINYYEAQIEANEELKKNKKIQENLADLATVDFNSLEFREKQLYLKSLINKIYIDGEQVTIEWL
AUC [1]
  Kd: 289 µM
  stoichiometry N: 2

B5: LI Int CTD K362A (133-452) (domain or fragment, Listeria innocua (prophage), UniProt Q928V6 133-452, looked up)
chain: B4 chain with K230A, A237Y
AUC [1]
  Kd: 45.2 µM
  stoichiometry N: 2

B6: LI Int carboxy-terminal domain, CTD (133-452) (domain or fragment, Listeria innocua (prophage), UniProt Q928V6 133-452, looked up)
chain: B4 chain with A237Y
AUC [1]
  Kd: 18.8 µM
  stoichiometry N: 2

B7: LI Int with the coiled-coil motif deleted, IntΔCC (Δ342-416) (enzyme, Listeria innocua (prophage), UniProt Q928V6 1-452, looked up)
chain: MKAAIYIRVSTQEQVENYSIQAQTEKLTALCRSKDWDVYDTFIDGGYSGSNMNRPALNEMLSKLHEIDAVVVYRLDRLSRSQKDTITLIEEYFLKNNVEFVSLSETLDTSSPFGRAMIGILSVFAQLERETIRDRMVMGKIKRIEAGLPLTTAKGRTFGYDVIDTKLYINEEEAKQLRLIYDIFEEEQSITFLQKRLKKLGFKVRTYNRYNNWLTNDLYCGYVSYKDKVHVKGIHEPIISEEQFYRVQEIFSRMGKNPNMNKESASLLNNLVVCSKCGLGFVHRRKDTVSRGKKYHYRYYSCKTYKHTHELEKCGNKIWRADKLEELIIDRVNNYSFASRNATVDFNSLEFREKQLYLKSLINKIYIDGEQVTIEWL
AUC [1]
  Kd: 5.7 µM
  stoichiometry N: 2
